Data published in IntAct's records for PubMed 28642151.

B1: Serine protease HTRA3 (Homo sapiens), P83110-1 (parent)
chain: MQARALLLAALAALALAREPPAAPCPARCDVSRCPSPRCPGGYVPDLCNCCLVCAASEGEPCGGPLDSPCGESLECVRGLCRCRWSHAVCGTDGHTYANVCALQAASRRALQLSGTPVRQLQKGACPLGLHQLSSPRYKFNFIADVVEKIAPAVVHIELFLRHPLFGRNVPLSSGSGFIMSEAGLIITNAHVVSSNSAAPGRQQLKVQLQNGDSYEATIKDIDKKSDIATIKIHPKKKLPVLLLGHSADLRPGEFVVAIGSPFALQNTVTTGIVSTAQREGRELGLRDSDMDYIQTDAIINYGNSGGPLVNLDGEVIGINTLKVTAGISFAIPSDRITRFLTEFQDKQIKDWKKRFIGIRMRTITPSLVDELKASNPDFPEVSSGIYVQEVAPNSPSQRGGIQDGDIIVKVNGRPLVDSSELQEAVLTESPLLLEVRRGNDDLLFSIAPEVVM
B2: Serine protease HTRA3 (Homo sapiens), P83110-1 (parent)
chain: B1 chain
partner: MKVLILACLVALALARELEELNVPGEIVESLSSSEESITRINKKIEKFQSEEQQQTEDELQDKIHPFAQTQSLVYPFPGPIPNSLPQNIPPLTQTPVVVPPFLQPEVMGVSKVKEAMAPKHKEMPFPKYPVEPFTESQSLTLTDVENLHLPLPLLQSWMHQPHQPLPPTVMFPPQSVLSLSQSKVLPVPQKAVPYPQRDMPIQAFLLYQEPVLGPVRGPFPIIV

Variants of: B1
Details: with xiap_human XIAP

effect of a mutation on the interaction | Variant
with no effect | MQARALLLAALAALALAREPPAAPCPARCDVSRCPSPRCPGGYVPDLCNCCLVCAASEGEPCGGPLDSPCGESLECVRGLCRCRWSHAVCGTDGHTYANVCALQAASRRALQLSGTPVRQLQKGACPLGLHQLSSPRYKFNFIADVVEKIAPAVVHIELFLRHPLFGRNVPLSSGSGFIMSEAGLIITNAHVVSSNSAAPGRQQLKVQLQNGDSYEATIKDIDKKSDIATIKIHPKKKLPVLLLGHSADLRPGEFVVAIGSPFALQNTVTTGIVSTAQREGRELGLRDSDMDYIQTDAIINYGNSGGPLVNLDGEVIGINTLKVTAGISFAIPSDRITRFLTEFQDKQIKDWKKRFIGIRMATITPSLVDALKASNPDFPEVSSGIYVAEVAPNSPSQRGGIQDGDIIVKVNGRPLVDSSELQEAVLTESPLLLEVRRGNDDLLFSIAPEVVM [R362A;E371A;Q389A]

Variants of: B2
Details: with casb_bovin CSN2, P02666

effect of a mutation on the interaction | Variant
with no effect | MQARALLLAALAALALAREPPAAPCPARCDVSRCPSPRCPGGYVPDLCNCCLVCAASEGEPCGGPLDSPCGESLECVRGLCRCRWSHAVCGTDGHTYANVCALQAASRRALQLSGTPVRQLQKGACPLGLHQLSSPRYKFNFIADVVEKIAPAVVHIELFLRHPLFGRNVPLSSGSGFIMSEAGLIITNAHVVSSNSAAPGRQQLKVQLQNGDSYEATIKDIDKKSDIATIKIHPKKKLPVLLLGHSADLRPGEFVVAIGSPFALQNTVTTGIVSTAQREGRELGLRDSDMDYIQTDAIINYGNSGGPLVNLDGEVIGINTLKVTAGISFAIPSDRITRFLTEFQDKQIKDWKKRFIGIRMATITPSLVDALKASNPDFPEVSSGIYVAEVAPNSPSQRGGIQDGDIIVKVNGRPLVDSSELQEAVLTESPLLLEVRRGNDDLLFSIAPEVVM [R362A;E371A;Q389A]
